Assay results as given in patent US20130096072A1 (Genentech, published 2013).
Bridges are numbered along the chain shown (N, C = ends). Where no end group is shown, it is not given here.

B1: IVGG.14 peptide (peptide)
peptide: IVGGYPWWMDV-NH2
notes: Synthetic peptide; also called possibly ZAP.14

How the values were obtained:
[1] = target: T1, scHGF β-chain (zymogen-like HGF β, residues Asn479 to Ser728, R494E, C-terminal His-tag) (human, UniProt P14210 479-728); assay: BLI (OctetRed) scHGF β activation/Met binding assay: peptide titrated into 0.5 µM scHGF β over biotinylated Met Sema/PSI on streptavidin tips; steady-state single-site fit
T1 construct: Expressed in insect cells; also called zHGF β; zymogen-like form of HGF β; not shown: C-terminal His-tag
Experimental: (§1) Met binding assays were carried out utilizing the OctetRed™ biolayer interferometry instrument (ForteBio, Inc.) as reported previously (Landgraf, K. E. et al. (2010) J Biol Chem 285: 40362-72). Biotinylated Met ECD (Sema/PSI-AviTag) was captured on the surface of streptavidin optical sensor tips (SA biosensors, ForteBio, Inc.), and transferred into buffer containing 0.5 μM scHGF β-chain variants in the presence of increasing concentration of indicated peptides. Association and dissociation reactions were monitored to ensure reversible binding between scHGF β and Met. Binding was quantified using the steady-state levels of surface response from the association reaction. Equilibrium constants were derived by least squares fitting of the titration data to a single-site binding equation. Errors reported are ±stdev of n=3 independent experiments.
Based on the finding that the consensus ZAPs contain features consistent with binding and inserting into the activation pocket, several related peptides were synthesized and utilized in a previously established scHGF β activation assay to assess their affinities and ability to active Met binding (Landgraf, K. E. et al. (2010) J Biol Chem 285: 40362-72). Since scHGF β can only weakly interact with the Met Sema-PSI domain compared to the active HGF β form, biolayer interferometry was used in the activation assay to measure the ability of a peptide to directly enhance the binding affinity of scHGF β to a streptavidin sensor surface coated with biotinylated Met (Landgraf, K. E. et al. (2010) J Biol Chem 285: 40362-72). Thus, titration of an activator peptide should result in a significant increase in the surface response signal due to enhanced scHGF β binding to Met.

[2] = target: scHGF (non-cleavable form of full-length pro-HGF with a mutated cleavage site) (human, UniProt P14210 32-728); assay: cell-based or functional assay
[3] = target: T1, scHGF β-chain (zymogen-like HGF β, …); assay: BLI scHGF β activation/Met binding assay
[4] = target: T1, scHGF β-chain (zymogen-like HGF β, …); assay: BLI, peptide-dependent activation of zHGF β binding to surface immobilized Met ECD
Experimental: as §1

[5] = target: T1, scHGF β-chain (zymogen-like HGF β, …); assay: activity-based phage sorting: library with 0.5 µM scHGF β in solution, complex captured on a Met Sema-PSI coated plate; the clones as a group are plotted in FIG. 9B
Experimental: Where activity-based sorting was conducted, the phage library was incubated in solution with 0.5 μM scHGF β at 4° C. then the mixture was applied to a Maxi-Sorp plate coated with 5 μg/ml Met Sema-PSI ECD protein for capture of activated complex. To analyze phage clones from the activity-based sorting two ELISAs were carried out separately to analyze binding and activity. The first ELISA measured direct phage binding to wells coated with 5 μg/ml scHGF β relative to a BSA control. The second activity ELISA measured phage binding to wells coated with 5 μg/ml Met in the presence or absence (negative control) of 0.5 μM scHGF β in solution. The data from these two ELISAs were plotted with direct binding on the y-axis and Met capture (activity) on the x-axis.
The new 15-mer ZAP-gene VIII phage library contained two main regions that were preferentially shielded from hard-randomization, the N-terminal motif which inserted into the activation pocket and a portion of the reverse turn motif that packs against the protein surface in the bound state (FIG. 8A). […] Phage clones from the solution sort and activity-based sort were sequenced and subjected to a 2-dimensional ELISA analysis, where the clones were analyzed for (i) direct scHGF β binding and (ii) the ability of phage clones to be captured by Met only in the presence of scHGF β.

T1 sequence (P14210 479-728 R494E): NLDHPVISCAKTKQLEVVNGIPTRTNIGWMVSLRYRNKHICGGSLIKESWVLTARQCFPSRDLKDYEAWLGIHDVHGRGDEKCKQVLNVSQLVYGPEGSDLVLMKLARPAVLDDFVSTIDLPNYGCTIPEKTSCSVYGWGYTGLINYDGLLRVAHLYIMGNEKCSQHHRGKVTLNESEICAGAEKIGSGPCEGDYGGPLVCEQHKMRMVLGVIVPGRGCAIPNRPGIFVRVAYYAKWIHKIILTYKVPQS
scHGF (non-cleavable form of full-length pro-HGF with a mutated cleavage site), sequence (P14210 32-728 limits assumed, change not shown): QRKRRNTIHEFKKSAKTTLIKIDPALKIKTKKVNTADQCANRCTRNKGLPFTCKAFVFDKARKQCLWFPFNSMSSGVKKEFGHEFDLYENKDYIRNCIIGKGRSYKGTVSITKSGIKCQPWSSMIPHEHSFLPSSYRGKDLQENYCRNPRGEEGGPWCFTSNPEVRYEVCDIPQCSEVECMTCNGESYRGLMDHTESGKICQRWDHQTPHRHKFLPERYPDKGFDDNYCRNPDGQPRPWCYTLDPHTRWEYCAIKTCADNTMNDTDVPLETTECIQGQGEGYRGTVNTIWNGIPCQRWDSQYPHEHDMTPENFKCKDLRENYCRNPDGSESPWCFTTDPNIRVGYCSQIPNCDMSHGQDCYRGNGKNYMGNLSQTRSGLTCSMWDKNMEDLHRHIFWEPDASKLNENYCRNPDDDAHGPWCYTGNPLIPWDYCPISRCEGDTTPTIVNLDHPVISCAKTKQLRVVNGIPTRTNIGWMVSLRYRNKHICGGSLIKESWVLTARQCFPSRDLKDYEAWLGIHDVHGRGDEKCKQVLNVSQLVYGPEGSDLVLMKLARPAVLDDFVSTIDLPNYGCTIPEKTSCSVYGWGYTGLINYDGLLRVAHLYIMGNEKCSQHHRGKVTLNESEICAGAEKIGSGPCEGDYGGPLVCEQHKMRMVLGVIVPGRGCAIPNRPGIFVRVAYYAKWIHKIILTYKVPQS

Binder	Kd [1] [µM]	EC50, BxPC-3 cell survival assay, peptide titrated with scHGF [2] [µM]	fold more potent than the peptides derived from the native N-terminus of the β-chain of HGF [3] [fold]	fold improvement over previous activators [4] [fold]	binding result [5]
B1	34	~20	~60	> 90	
IIGGCPYWMDREECI (disulfide 5-14) [ZAP.03]					binds
